Drawing on US20240190985A1, this text covers Kd for 3 substances.

Experiment [1] concerns the target SUMO-CD99 fusion protein (SUMO fused with the extracellular domain of CD99, residues 23-122) (human) (UniProt P14209). Put plainly: apparent affinity to the recombinant ECD of CD99; method not given, value compared with the bead-based values of FIG. 1F.
Experiment [2] addresses CD99 endogenously expressed on cells (Jurkat, KOPT-K1) (UniProt P14209). Description: cell binding; apparent KD; nM Fv; avid.
Experiment [3] has the same target. Description: cell binding; apparent KD; nM molecule; avid.

Chain of CD99 endogenously expressed on cells (Jurkat, KOPT-K1) (P14209 23-185): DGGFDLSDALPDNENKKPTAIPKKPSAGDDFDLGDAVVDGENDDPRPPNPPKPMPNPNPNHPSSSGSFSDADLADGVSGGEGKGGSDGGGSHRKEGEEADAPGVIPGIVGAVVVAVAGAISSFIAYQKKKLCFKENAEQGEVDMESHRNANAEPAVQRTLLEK
Chain of SUMO-CD99 fusion protein (SUMO fused with the extracellular domain of CD99, residues 23-122) (human) (P14209 23-122): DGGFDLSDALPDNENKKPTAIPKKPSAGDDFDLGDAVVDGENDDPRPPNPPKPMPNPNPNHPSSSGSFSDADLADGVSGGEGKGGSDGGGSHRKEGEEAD

Turning to “anti-CD99 mouse IgM, HO36-1.1 (ab212605, Abcam) (antibody)”, in experiment [1], the Kd came to 226 nM. In the case of “bivalent SAV-10A1 Fab complex (A2D2 streptavidin with biotinylated 10A1 Fab) (from UniProt P22629 37-163; P22629 37-163)”, the figures for the Kd in experiment [2] and in experiment [3] were 5.2 nM and 2.6 nM, respectively. On the same counts, the results for “trivalent SAV-10A1 Fab complex (A3D1 streptavidin with biotinylated 10A1 Fab) (from UniProt P22629 37-163; P22629 37-163)” are 3.9 nM and 1.3 nM.
